Results as given in US6617497B1, “Cytokinin oxidase” (The Curators of the University of Missouri, priority 1997, dated 2003).

Target: T1, cytokinin oxidase activity (Zea mays, UniProt Q9T0N8)
T1 construct: The exon fusion (containing ckx1 and including its putative signal peptide) was ligated into the Pml1/BsmB1 restriction sites of pPICZ-A; made in house; host or cells: Pichia pastoris X33 (transformant PPckx1, plasmid pROM24); activity measured in the culture supernatant
Assay: Cytokinin oxidase activity of ckx1 expressed in Pichia pastoris
Assay type: biochemical
Text: Two assays were used to screen purification steps for cytokinin oxidase activity. The first was the Schiff base formation assay measuring the production of dimethylallylaldehyde from iP, as described by Liberos-Minotta (1995), which was used up through the DEAE column step. A second assay, developed by the applicant, was used in the remaining purification steps. In this assay, the transfer of reducing equivalents from isopentenyladenine to dichlorophenolindophenol (DCPIP), catalyzed by ckx1, allows the observance of reactivity by measuring absorbance change at 590 nm. In a final volume of 250 μl, the assay contains: 100 mM Phosphate buffer, pH 7.0; 1.0 mM EDTA; 0.05 mM DCPIP; 0.1 mM iP; 100 μg/ml BSA; and the sample tested. After the addition of the enzyme, absorbance change is read at 590 nm for 10 minutes.
Removal of the right-most intron was accomplished by splicing by overlap extension (Horton et al., 1989) and for the left-most intron by ligation of suitable restriction fragments. The resulting intronless cassette was inserted into the Pichia expression vector pPICZ-A to give the expression construct pROM24 (FIG. 9). This construct was introduced into the requisite Pichia host and grown in the presence of methanol to induce ckx1 expression. Appropriate control Pichia lines (containing. the vector alone or a recombinant expressing human serum albumin) were grown in parallel. […]

T1 sequence (Q9T0N8 19-534): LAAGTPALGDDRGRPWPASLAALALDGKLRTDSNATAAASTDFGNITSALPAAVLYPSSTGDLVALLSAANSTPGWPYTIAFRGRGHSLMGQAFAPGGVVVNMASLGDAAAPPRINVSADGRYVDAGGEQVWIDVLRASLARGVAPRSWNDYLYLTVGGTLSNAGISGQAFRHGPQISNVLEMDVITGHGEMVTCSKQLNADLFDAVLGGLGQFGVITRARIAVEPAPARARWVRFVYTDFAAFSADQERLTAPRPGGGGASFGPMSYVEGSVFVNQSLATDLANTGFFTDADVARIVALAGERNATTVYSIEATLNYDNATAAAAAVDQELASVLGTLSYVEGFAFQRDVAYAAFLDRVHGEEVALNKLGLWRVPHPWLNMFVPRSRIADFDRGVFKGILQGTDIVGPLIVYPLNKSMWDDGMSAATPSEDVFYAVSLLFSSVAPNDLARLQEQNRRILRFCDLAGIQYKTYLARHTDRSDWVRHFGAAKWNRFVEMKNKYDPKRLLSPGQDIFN

- cytokinin oxidase activity in cell lysates (Pichia cell lysates, at any time during the growth curve): No cytokinin oxidase activity
B1: ckx1: purified plant cytokinin oxidizing enzyme from Zea mays (SEQ. ID NO. 1); here expressed recombinantly in Pichia pastoris (protein)
chain: MAVVYYLLLAGLIACSHALAAGTPALGDDRGRPWPASLAALALDGKLRTDSNATAAASTDFGNITSALPAAVLYPSSTGDLVALLSAANSTPGWPYTIAFRGRGHSLMGQAFAPGGVVVNMASLGDAAAPPGINVSADGRYVDAGGEQVWIDVLRASLARGVAPRSWNDYLYLTVGGTLSNAGISGQAFRHGPQISNVLEMDVITGHGEMVTCSKQLNADLFDAVLGGLGQFGVITRARIAVEPAPARARWVRFVYTDFAAFSADQERLTAPRPGGGGASFGPMSYVEGSVFVNQSLATDLANTGFFTDADVARIVALAGERNATTVYSIEATLNYDNATAAAAAVDQELASVLGTLSYVEGFAFQRDVAYAAFLDRVHGEEVALNKLGLWRVPHPWLNMFVPRSRIADFDRGVFKGILQGTDIVGPLIVYPLNKSMWDDGMSAATPSEDVFYAVSLLFSSVAPNDLARLQEQNRRILRFCDLAGIQYKTYLARHTDRSDWVRHFGAAKWNRFVEMKNKYDPKRLLSPGQDIFN
modifications: Zea mays
notes: here expressed recombinantly in Pichia pastoris
- cytokinin oxidase activity in growth medium (Pichia culture supernatant, methanol induction): high levels of cytokinin oxidase activity
